One test addresses ACE2(HH:NN)-Fc (human) (UniProt Q9BYF1). Briefly: SPR.
In test [1] the target is catalytically active ACE2-Fc (human) (UniProt Q9BYF1). Description: SPR.

On to Angiotensin II (peptide), for which the Kd in the test with ACE2(HH:NN)-Fc (human) came out at 1300 nM; in test [1] it was 117 nM.

One may read the Kd as the constant that tells how readily two partners part at equilibrium. Lower therefore signals higher affinity.

Source of the values: article doi:10.1101/2021.03.17.435802.
